Source: the MegaScale stability set (Tsuboyama et al. 2023)

B1: r16_88_TrROS_Hall (parent)
chain: EVIELKIKFKTPEQREKLKEIAKKLNAEVVEEKDGEVIIRFKTPEQAERALKEAEKLGAEVEL

Variants of: B1
Test: folding stability dG (cDNA display proteolysis); higher = more stable
Details: PBS, room temperature

Folding stability dG [kcal/mol] of substitutions, site by site:
G58: H 4.27; E 4.12; S 4.43; R 4.27; V 4.21; K 4.25; M 4.33; I 4.22; D 4.42; C 4.28; T 4.26; P 3.83; Q 4.25; F 4.24; A 4.3; L 4.35; W 4.21; Y 4.25; N 4.25
E60: Y 4.21; W 4.01; F 4.07; Q 4.2; I 4.12; N 4.29; A 4.12; R 4.15; C 4.27; M 4.11; L 4.21; G 3.81; K 4.38; T 4.4; P 3.44; V 4.54; H 4.19; D 4.24; S 4.28
V61: K 3.84; S 3.93; C 4.16; D 4.72; N 4.28; I 4.29; H 4.39; W 3.96; E 4.3; P 4.14; G 4.4; R 3.46; M 3.99; A 4.51; Q 4.22; T 4.2; F 4.05; L 4.28
L57: Y 4.28; S 4.26; C 4.2; W 4.6; F 4.33; Q 4.25; A 4.15; P 3.32; V 4.5; D 4.08; M 4.31; E 4.36; K 3.5; N 4.35; R 3.57; I 4.43; H 4.26; T 4.04; G 3.96
K56: H 4.33; S 4.51; D 4.21; E 4.28; Y 4.41; L 4.5; G 4.53; I 4.52; T 4.48; R 4.15; F 4.23; Q 4.43; V 4.45; N 4.44; C 4.41; A 4.49; W 4.26; M 4.57; P 4.5
A59: W 4.21; L 4.62; G 4.18; Q 4.05; Y 4.5; T 4.27; C 4.17; R 3.99; F 4.59; M 4.39; S 4.26; N 4.3; E 4.23; K 4.31; V 4.65; I 4.01; P 4.55; D 4.28; H 4.43
E55: N 4.42; M 4.37; Y 4.66; A 4.43; K 4.3; Q 4.48; V 4.51; L 4.45; I 4.46; D 4.27; P 3.67; C 4.43; W 4.58; H 4.21; T 4.31; R 4.57; F 4.59; G 4.22; S 4.51
A54: S 4.45; V 4.43; R 3.4; M 4.44; W 4.08; C 4.41; I 4.43; G 4.09; F 4.35; E 3.03; Y 4.16; K 3.51; Q 3.6; T 4.19; N 3.65; P 2.86; L 4.35; H 3.5; D 2.86
E53: Q 4.42; I 4.27; M 4.39; K 4.02; H 4.17; Y 4.3; W 4.37; P 3.08; F 4.49; R 4.03; S 4.21; V 4.36; T 4.03; G 4.07; N 3.87; L 4.61
